In the supplement of paper PMC9170038:

Tested on: K4 kissing-loop RNA reporter
Assay: apparent KD of K4 kissing-loop reporter; higher = weaker reporter binding
Details: Eterna round: R107
Description: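 RNA-MaP round R107: designed RNA switches with theophylline, tryptophan, arginine or FMN aptamers are transcribed on-chip within common flanks. They are titrated with a labelled K4 kissing-loop RNA reporter in RNA-MaP buffer (100 mM Tris pH 7.5, 80 mM KCl, 4 mM MgCl2), without ligand or with the indicated ligand. Median apparent KD per design.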

[1] = input ligand: theophylline 20 uM
[2] = input ligand: tryptophan 2.4 mM
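Note: bound reporter read as fluorescence of individual clusters on recovered sequencing chips by microscopy, with normalized cluster intensities fitted with a binding model.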

| Sequence | apparent KD of K4 kissing-loop reporter (input ligand: FMN 200 uM) [nM] | apparent KD of K4 kissing-loop reporter (input ligand: arginine 13.2 mM) [nM] | apparent KD of K4 kissing-loop reporter (input ligand: none) [nM] | apparent KD of K4 kissing-loop reporter [1] [nM] | apparent KD of K4 kissing-loop reporter [2] [nM] |
| --- | --- | --- | --- | --- | --- |
| AAUGCAUAGUGAAGGAGCGCGAUAAGCAGUGAUGUUGCUUAGUUAUUAGUGUUUAUUUAUACGCAGGUAGGUCGCACUUUGCAUA [JR_ExcArginiB_Sub018] | 115 | 103 | 109 | 105 | 107 |
| AAUAUAUUGUGAAGGAGCGCGAAAAGCAGUGAUGUUGCUUACUUACAAUUUAUUUUUUACACGCAGGUAGGUCGCACAAUAUAUA [JR_SSArginiB_Sub015] | 234 | 223 | 269 | 280 | 220 |
| GCCGUACGCAUGGAUACCAGAUGGCACUAUAAUCUCCCAGAGUGAUGUUCUGGCCUGCCUAUCCCUUGGCAGCCAUGCGUACGGC | 686 | 514 | 670 | 387 | 585 |
| AACGUUUUGUGAAGGAGCGCGAUAAGCAGUGAUGUUGCUUACUAUCAAUUUAUAUUUUACACGCAGGUAGGUCGCACAAUACGUA [JR_SSArginiB_Sub018] | 159 | 135 | 160 | 148 | 163 |
| UUUUUAAUCGCAGAUACCAGUCCAGAAUAAAUACUAUAGUGAUGUUAUAAAUAAGGAAAGGACCCUUGGCAGCUGUACUAUAUUU [AstrosSsTheB#7] | 433 | 465 | 668 | 372 | 524 |
| UUAGGAGUGGAAGGAUAUCCUGGUGUGGGUGAUGUUAGUGAUGUUGAAGGUGCAGUGAUGUUGCGCGGAGAAGGUCCGGUGUUGA [BDazzled - #6 - Exc. FMN B] | 344 | 341 | 367 | 546 | 319 |
| CGCAGUGAUGUUGCUAUUAUUCUUGGUUAACGAGGACCGGUACGGCCGCCACUCGAUUUCUAUCUAGUCCAGUGUUUUUUUGAGU [whbob_EX_Tryp_A_t7] | 347 | 392 | 470 | 451 | 250 |
| CUUGAAAUGACUGAUACCAGUGAAAAUAUAUGUAGUGAUGUUAUAUACUAAUUUAAUAAGCGCCCUUGGCAGCAGUAUGAAUUAU [AstrosExc-theB#17] | 861 | 516 | 868 | 764 | 702 |
| UGGAGUUGACGAAAAGUCAACUCCUGAGAUACCAGUGACGAAGGUCACCCUUGGCAGCUCACUGCCAGUGAUGUUGGAAGAUAAA [whbob_SS_Theo_A_w47] | 273 | 292 | 303 | 396 | 174 |
| CCCUCACGAGUGAUGUUCGUAGGGUACAGUCAGGAUAUCAUGCGGUUGAGAAGGGACAGAGAGGGCGGCCACGGGUUGCUCAUCU [Tiongequ] | 187 | 288 | 372 | 435 | 390 |
| AUGCGUUGCACGGCCGCCACUGAUAUUAUGCUUCAGGAUGCUUCUGAAAGUGAUGUUUUCAGAUCCAGGACCGGGUGCCAAGAUU [theeternabot_sameState_KL_Trp_B_17] | 104 | 88.2 | 98.3 | 92.3 | 98.8 |
| UGUCAUUGGUCUGAUACCAGAAGAAAUCUGGAGUGAUGUUCCGAGUACGACAAAAGUCGCUUCCCUUGGCAGCAGACCGAUGACU [TheoBS 22 #SwitchBubble 13 #StaticStem] | 235 | 198 | 198 | 161 | 207 |
| AGGGUAAGGCGUUAACAUGACACCUGGGAAGGAGCGCGGUACACCGCAGGUAGGUCGCCCAGUGAUGUUGGGUGUAUGUAUGAGU [KL-XArg-A21] | 170 | 120 | 139 | 154 | 132 |
| CGAGUGAUGUUCGUUCGUUUAUUUCGUUGACAGGAUAUGCGGAAACGCAGAAGGGUCACCUUUGAGUUAACGGAAUUAACGUUAU [Ex FMN A 28] | 561 | 452 | 544 | 490 | 456 |
| ACUGAGCAUGCGGCCGCCACUUCAGAACGUCGCCCGGAGGGCGACGCCUCCGCAGUGAUGUUGCGGAGGACCGGGCAUGUUCAGA [Omei KL Tryp B Exc A v4] | 90.4 | 78.4 | 99.8 | 77.9 | 85.3 |
| AAUAAAAUCACGGCCGCCACUGAAUAAUUGGUAAGUAGUGAUGUUACUUUACAUAUCUUAUUUAACAGGACCGGGUGAAUAUUUA [JR_ExcTryptoB_Sub008] | 134 | 92.4 | 116 | 103 | 131 |
| CCUGAAUCAGUGAGUGAUGUUCACGUCGAUACCAGCUAGGAUACUAGCCCUUGGCAGCGACAAUUGCCAAGUGUGGCUAGUCAAA [Theo B SS t8] | 140 | 134 | 160 | 148 | 147 |
| AAGCAGUCACUCGAAACCAUCGAAGAUGGACGAGGACCGGUACGGCCGCCACUCGGAGUGAUGUUCCGAAGACUGCAAAAUAAAA | 373 | 374 | 374 | 434 | 370 |
